Reference: patent US20150376252A1 (VAN ANDEL RESEARCH INSTITUTE, published 2015)
Where two headings read alike, the source gives them in different places.

T1: Fz4-YFP-C (full-length human Fz4 with YFP residues 159-239 at the C-terminus) (human, UniProt Q9ULV1 37-537)
T1 construct: whole, on cells; also called YFP-C-tagged Fz4; not shown: YFP-C, residues 159-239 of YFP
T1 sequence (looked up): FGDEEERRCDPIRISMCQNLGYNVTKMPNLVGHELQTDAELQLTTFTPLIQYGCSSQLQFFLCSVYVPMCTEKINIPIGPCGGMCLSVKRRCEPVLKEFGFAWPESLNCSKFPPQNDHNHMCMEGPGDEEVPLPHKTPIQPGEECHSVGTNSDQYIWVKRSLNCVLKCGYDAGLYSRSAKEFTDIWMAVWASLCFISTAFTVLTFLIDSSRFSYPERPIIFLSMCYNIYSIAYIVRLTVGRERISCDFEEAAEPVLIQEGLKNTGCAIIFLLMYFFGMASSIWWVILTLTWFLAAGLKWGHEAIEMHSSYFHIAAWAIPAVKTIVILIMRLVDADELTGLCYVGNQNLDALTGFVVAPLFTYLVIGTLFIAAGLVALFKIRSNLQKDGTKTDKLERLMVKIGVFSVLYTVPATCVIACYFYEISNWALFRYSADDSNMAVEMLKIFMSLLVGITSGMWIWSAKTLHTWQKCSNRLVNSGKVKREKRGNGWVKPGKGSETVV

T2: Fz4-YFP (full-length human Fz4 with yellow fluorescent protein at the C-terminus) (human, UniProt Q9ULV1 37-537)
T2 construct: whole, on cells; also called YFP-tagged Fz4; not shown: YFP
T2 sequence (looked up): T1 sequence (looked up)

T3: Fz4-Rlu (full-length human Fz4 with Renilla luciferase at the C-terminus) (human, UniProt Q9ULV1 37-537)
T3 construct: whole, on cells; also called Rlu-tagged Fz4; not shown: Renilla luciferase (Rlu)
T3 sequence (looked up): T1 sequence (looked up)

T4: Tspan12-YFP (human Tspan12 with YFP at the C-terminus) (human, UniProt O95859 1-305)
T4 construct: whole, on cells; also called YFP-tagged Tspan12; not shown: YFP
T4 sequence (looked up): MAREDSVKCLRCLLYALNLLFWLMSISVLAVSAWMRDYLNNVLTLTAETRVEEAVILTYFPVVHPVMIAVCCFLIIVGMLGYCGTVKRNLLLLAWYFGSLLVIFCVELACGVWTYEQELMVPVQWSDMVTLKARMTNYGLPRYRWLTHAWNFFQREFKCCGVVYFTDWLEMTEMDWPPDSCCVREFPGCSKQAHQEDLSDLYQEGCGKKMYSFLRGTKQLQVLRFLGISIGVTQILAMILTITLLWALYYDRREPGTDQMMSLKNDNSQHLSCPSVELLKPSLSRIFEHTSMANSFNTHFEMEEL

B1: Fz4-YFP-N (full-length human Fz4 with YFP residues 1-158 at the C-terminus) (receptor, UniProt Q9ULV1 37-537, looked up)
chain: T1 sequence (looked up)
notes: whole, on cells; also called YFP-N-tagged Fz4; not shown: YFP-N, residues 1-158 of YFP
B2: Tspan12-Rlu (human Tspan12 with Renilla luciferase at the C-terminus) (other, UniProt O95859 1-305, looked up)
chain: T4 sequence (looked up)
notes: whole, on cells; also called Rlu-tagged Tspan12; not shown: Renilla luciferase (Rlu)
B3: Fz8-FcH6 (Frizzled 8 CRD, residues 28-155, fused to Fc and His6 tags) (Fc fusion)
chain: ASAKELACQEITVPLCKGIGYNYTYMPNQFNHDTQDEAGLEVHQFWPLVEIQCSPDLKFFLCSMYTPICLEDYKKPLPPCRSVCERAKAGCAPLMRQYGFAWPDRMRCDRLPEQGNPDTLCMDYNRTD
notes: range 28-155; also called Fz8 CRD; not shown: Fc tag of the pHL-IgL-FcH6 vector; His6 tag (six histidines)
B4: His8-tagged Lrp6 BP1-2 (Lrp6 extracellular beta-propeller domains 1 and 2) (receptor, UniProt O75581 20-631, looked up)
chain: APLLLYANRRDLRLVDATNGKENATIVVGGLEDAAAVDFVFSHGLIYWSDVSEEAIKRTEFNKTESVQNVVVSGLLSPDGLACDWLGEKLYWTDSETNRIEVSNLDGSLRKVLFWQELDQPRAIALDPSSGFMYWTDWGEVPKIERAGMDGSSRFIIINSEIYWPNGLTLDYEEQKLYWADAKLNFIHKSNLDGTNRQAVVKGSLPHPFALTLFEDILYWTDWSTHSILACNKYTGEGLREIHSDIFSPMDIHAFSQQRQPNATNPCGIDNGGCSHLCLMSPVKPFYQCACPTGVKLLENGKTCKDGATELLLLARRTDLRRISLDTPDFTDIVLQLEDIRHAIAIDYDPVEGYIYWTDDEVRAIRRSFIDGSGSQFVVTAQIAHPDGIAVDWVARNLYWTDTGTDRIEVTRLNGTMRKILISEDLEEPRAIVLDPMVGYMYWTDWGEIPKIERAALDGSDRVVLVNTSLGWPNGLALDYDEGKIYWGDAKTDKIEVMNTDGTGRRVLVEDKIPHIFGFTLLGDYVYWTDWQRRSIERVHKRSAEREVIIDQLPDLMGLKATNVHRVIGSNPCAEENGGCSHLCLYRPQGLRCACPIGFELISDMKTCIVPE
notes: domain: β-propeller domains 1-2 (BP1-2); for the separate Fc constructs BP1 is 20-325 and BP2 is 325-631; also called H8-Lrp6 BP1-2; not shown: His8 tag (eight histidines)
B5: CCK2R-YFP (receptor, UniProt P32239 1-447, looked up)
chain: MELLKLNRSVQGTGPGPGASLCRPGAPLLNSSSVGNLSCEPPRIRGAGTRELELAIRITLYAVIFLMSVGGNMLIIVVLGLSRRLRTVTNAFLLSLAVSDLLLAVACMPFTLLPNLMGTFIFGTVICKAVSYLMGVSVSVSTLSLVAIALERYSAICRPLQARVWQTRSHAARVIVATWLLSGLLMVPYPVYTVVQPVGPRVLQCVHRWPSARVRQTWSVLLLLLLFFIPGVVMAVAYGLISRELYLGLRFDGDSDSDSQSRVRNQGGLPGAVHQNGRCRPETGAVGEDSDGCYVQLPRSRPALELTALTAPGPGSGSRPTQAKLLAKKRVVRMLLVIVVLFFLCWLPVYSANTWRAFDGPGAHRALSGAPISFIHLLSYASACVNPLVYCFMHRRFRQACLETCARCCPRPPRARPRALPDEDPPTPSIASLSRLSYTTISTLGPG
notes: whole, on cells; Negative control of the saturation BRET; also called CCK2R-YFP, an unrelated seven-transmembrane receptor; not shown: YFP
B6: Lrp6 BP3-4 (Lrp6 extracellular beta-propeller domains 3 and 4) (receptor)
chain: VPEAFLLFSRRADIRRISLETNNNNVAIPLTGVKEASALDFDVTDNRIYWTDISLKTISRAFMNGSALEHVVEFGLDYPEGMAVDWLGKNLYWADTGTNRIEVSKLDGQHRQVLVWKDLDSPRALALDPAEGFMYWTEWGGKPKIDRAAMDGSERTTLVPNVGRANGLTIDYAKRRLYWTDLDTNLIESSNMLGLNREVIADDLPHPFGLTQYQDYIYWTDWSRRSIERANKTSGQNRTIIQGHLDYVMDILVFHSSRQSGWNECASSNGHCSHLCLAVPVGGFVCGCPAHYSLNADNRTCSAPTTFLLFSQKSAINRMVIDEQQSPDIILPIHSLRNVRAIDYDPLDKQLYWIDSRQNMIRKAQEDGSQGFTVVVSSVPSQNLEIQPYDLSIDIYSRYIYWTCEATNVINVTRLDGRSVGVVLKGEQDRPRAVVVNPEKGYMYFTNLQERSPKIERAALDGTEREVLFFSGLSKPIALALDSRLGKLFWADSDLRRIESSDLSGANRIVLEDSNILQPVGLTVFENWLYWIDKQQQMIEKIDMTGREGRTKVQARIAQLSDIHAVKELNLQEYRQHPCAQDNGGCSHICLVKGDGTTRCSCPMHLVLLQDELSCG
notes: domain: β-propeller domains 3-4 (BP3-4); not shown: His8 tag (His8 tagged Lrp6 ECD proteins)
B7: Soluble-Rlu (enzyme)
chain: MTSKVYDPEQRKRMITGPQWWARCKQMNVLDSFINYYDSEKHAENAVIFLHGNAASSYLWRHVVPHIEPVARCIIPDLIGMGKSGKSGNGSYRLLDHYKYLTAWFELLNLPKKIIFVGHDWGACLAFHYSYEHQDKIKAIVHAESVVDVIESWDEWPDIEEDIALIKSEEGEKMVLENNFFVETMLPSKIMRKLEPEEFAAYLEPFKEKGEVRRPTLSWPREIPLVKGGKPDVVQIVRNYNAYLRASDDLPKMFIESDPGFFSNAIVEGAKKFPNTEFVKVKGLHFSQEDAPDEMGKYIKSFVERVLKNEQ
B8: Fz4-FcH6 (human Frizzled 4 CRD, residues 40-164, fused to Fc and His6 tags) (Fc fusion)
chain: EEERRCDPIRISMCQNLGYNVTKMPNLVGHELQTDAELQLTTFTPLIQYGCSSQLQFFLCSVYVPMCTEKINIPIGPCGGMCLSVKRRCEPVLKEFGFAWPESLNCSKFPPQNDHNHMCMEGPGD
notes: range 40-164; also called Fz4 CRD-FcH6; Fz4-FcH6 dimer; not shown: Fc tag of the pHL-IgL-FcH6 vector; His6 tag (six histidines)

Experiments:
[1] = target: T1, Fz4-YFP-C (full-length human Fz4 with …); test: split-YFP complementation: fluorescence microscopy, emission spectrum, anisotropy
[2] = target: T2, Fz4-YFP (full-length human Fz4 with …); test: static BRET in transfected COS-1 cells
[3] = target: T1, Fz4-YFP-C (full-length human Fz4 with …); test: split-YFP BRET assay (FIG. 6D)
[4] = target: B1; test: split-YFP BRET assay (FIG. 6D)
[5] = target: T5, MBP-Norrin (maltose binding protein fused to the N-terminus of human Norrin residues 25-133, wild-type) (human); test: biolayer interferometry, Fz8-FcH6 on the sensor, MBP-Norrin in solution
biotinylated MBP-Norrin [6] = target: biotinylated MBP-Norrin (human); test: AlphaScreen luminescence proximity assay
MBP-Norrin K54E/R109E = target: T6, MBP-Norrin K54E/R109E (human); test: AlphaScreen competition: unlabeled mutant MBP-Norrin against b-DKK1 peptide on H8-Lrp6 BP1-2
T6 construct: MBP tagged mutant purified like the wild-type; also called K54E/R109E double mutant

[7] = target: T5, MBP-Norrin (maltose binding protein …); test: calculated from the homologous competition assay (FIG. 4B, 4C); Kd derived from the same homologous competition
[8] = target: T3, Fz4-Rlu (full-length human Fz4 with …); test: saturation BRET in transfected COS-1 cells
[9] = target: T5, MBP-Norrin (maltose binding protein …); test: three-step biolayer interferometry: Lrp6 BP3-4 on MBP-Norrin pre-bound to Fz4-FcH6 sensors
biotinylated MBP-Norrin [10] = target: biotinylated MBP-Norrin (human); test: AlphaScreen luminescence proximity assay; remark: listed apart in the source
[11] = target: T4, Tspan12-YFP (human Tspan12 with YFP at …); test: static BRET in transfected COS-1 cells
[12] = target: T2, Fz4-YFP (full-length human Fz4 with …); test: static BRET in transfected COS-1 cells; remark: listed apart in the source
[13] = target: T5, MBP-Norrin (maltose binding protein …); test: biolayer interferometry; binding avidity of dimer to dimer (FIG. 8A)
biotinylated MBP-Norrin [14] = target: biotinylated MBP-Norrin (human); test: AlphaScreen saturation binding curve; binding avidity of dimer to dimer (FIG. 1E)

## B1
[1]
  binding result: binds

## B2
[2]
  binding result: binds
[3]
  binding result: binds
[4]
  binding result: binds

## B3
[5]
  binding result: no binding
Biotinylated MBP-Norrin [6]
  binding result: no binding

## B4
MBP-Norrin K54E/R109E
  binding result: no binding (tested: 1.805 µM)
[7]
  Kd: ~450 nM

## B5
[8]
  binding result: no binding (tested: YFP/Rlu about 33 (ratio))

## B6
[9]
  binding result: no binding (tested: 40 µg/ml)
Biotinylated MBP-Norrin [10]
  binding result: no binding

## B7
[11]
  binding result: no binding
[12]
  binding result: no binding

## B8
[13]
  Kd: ~5 nM
Biotinylated MBP-Norrin [14]
  Kd: ~11 nM
